Test results taken from FireProtDB (doi:10.1016/s0022-2836(02)00630-7).

B1: Phosphocarrier protein HPr, P08877 (parent)
chain: MAQKTFKVTADSGIHARPATVLVQTASKYDADVNLEYNGKTVNLKSIMGVMSLGIAKGAEITISASGADENDALNALEETMKSEGLGE

Variants of: B1
Conditions: Bacillus subtilis (strain 168), pH 7, CD, Potassium phosphate 10 mM, reversible: yes, structure 1KKM, whole UniProt chain shown; for ddG of mutation (higher = less stable) / denaturant m value / denaturant midpoint (higher = more stable): 25 °C

Row | Variant | ddG of mutation (higher = less stable) (Thermal) | ddG of mutation (higher = less stable) (Urea) | denaturant m value (Urea) | denaturant midpoint (higher = more stable) (Urea) | Tm (Thermal) | change of melting temperature, mutant - wild type (higher = more stable) (Thermal) | unfolding enthalpy (van 't Hoff) (Thermal)
1 | MAQKTFKVTADSGIHARPATVLVQTASKYDADVNLEYNGKTVNLKSIMEVMSLGIAKGAEITISASGADENDALNALEETMKSEGLGE [G49E] | -1.4 kcal/mol | -1.2 kcal/mol | 1 kcal/mol/M | 5.77 M | 78.1 °C | 5.5 °C | 83.8 kcal/mol
2 | MAQKTFKVTADSGIHARPATVLVQTASKYDADVNLEYNGKTVNLKSIMKVMSLGIAKGAEITISASGADENDALNALEETMKSEGLGE [G49K] | 1 kcal/mol | 0.8 kcal/mol | 1.13 kcal/mol/M | 3.84 M | 68.1 °C | -4.5 °C | 73.9 kcal/mol
3 | MAQKTFKVTADSGIHARPATVLVQTASKYDADVNLEYNGKTVNLKSIMAVMSLGIAKGAEITISASGADENDALNALEETMKSEGLGE [G49A] | -0.8 kcal/mol | -0.9 kcal/mol | 1.01 kcal/mol/M | 5.44 M | 75.8 °C | 3.2 °C | 82.4 kcal/mol
